{"source": "patent US20250064951A1", "about": "“DENDRITIC POLYELECTROLYTE ZWITTERIONS, JANUS-TYPE CONJUGATE COMPRISING SAME AND USES THEREOF” (ArtProBio Co., Ltd., priority 2023, published 2025)", "key": {"BSA": {"target": "BSA (Bos taurus, UniProt P02769)", "sequence (P02769 25-607)": "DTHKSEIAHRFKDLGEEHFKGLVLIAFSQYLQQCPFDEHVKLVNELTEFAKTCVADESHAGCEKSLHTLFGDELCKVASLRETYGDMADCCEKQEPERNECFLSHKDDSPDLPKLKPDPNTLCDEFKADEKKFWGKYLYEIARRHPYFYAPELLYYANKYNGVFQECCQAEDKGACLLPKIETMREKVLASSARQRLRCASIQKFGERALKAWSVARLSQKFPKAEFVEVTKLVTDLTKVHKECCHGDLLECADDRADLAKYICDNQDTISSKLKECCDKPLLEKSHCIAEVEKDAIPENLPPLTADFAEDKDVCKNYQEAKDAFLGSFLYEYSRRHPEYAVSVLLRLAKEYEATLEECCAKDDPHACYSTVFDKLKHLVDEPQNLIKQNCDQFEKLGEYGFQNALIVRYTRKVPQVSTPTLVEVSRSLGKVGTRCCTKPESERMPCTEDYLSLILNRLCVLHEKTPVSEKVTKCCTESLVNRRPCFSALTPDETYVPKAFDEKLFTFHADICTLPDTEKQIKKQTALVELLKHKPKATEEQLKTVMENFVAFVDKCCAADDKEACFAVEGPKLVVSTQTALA", "test": "EMSA of non-fouling property for proteins (BSA)", "assay_type": "binding", "description": "The mixing ratio was R/B ratio, wherein the R/B ratio was arginine/BSA ratio. […] For visualization, the bands were stained with Coomassie brilliant blue R-250.\nThe mixing ratio was peptide/BSA ratio, wherein the peptide/BSA ratio was peptide/BSA (w/w). […] For visualization, the bands were stained with Coomassie brilliant blue R-250."}, "[1]": {"test": "DLS size, size distribution and zeta potential", "assay_type": "physicochemical", "settings": "for Diameter (nm) in DW / Diameter (nm) in PBS: DLS"}, "yeast rRNA": {"system": "yeast rRNA", "test": "EMSA of non-fouling property for rRNA", "assay_type": "binding", "settings": "200 ng yeast rRNA; various peptide/RNA (w/w) ratios; room temperature 1 hour", "procedure": "It was confirmed through EMSA (electrophoretic mobility shift assay) that the dendrimer structure of the present disclosure has non-fouling property for various genetic materials present in the body when administered in vivo. 200 ng of yeast rRNA (ribosomal RNA) was prepared as a model genetic material and mixed with the Janus-type dendritic polyelectrolyte zwitterion of Example 5-4 (JDPZ ((+6)2(−6)2 conjugate_1)) at various concentration ratios. The mixing ratio was peptide/RNA ratio, wherein the peptide/RNA ratio was peptide/RNA (w/w). After reacting the mixture at room temperature for 1 hour, electrophoresis was performed on a 2% agarose gel at 90 V for 100 minutes. For visualization, the bands were stained with SYBR Gold nucleic acid gel stain (Invitrogen, USA).\nThe Janus-type dendrimer structure of Comparative Example 1-2 ((+3)2(Ø3)2 conjugate) was used as a control group instead of the JDPZ of Example 5-4 ((+6)2(−6)2 conjugate_1)."}, "HCT116 cells [2]": {"system": "HCT116 cells", "test": "Cytotoxicity, WST-8 assay in HCT116 cells", "assay_type": "cell-based, human", "settings": "0, 1.25, 2.5, 5, 10 μM, 4 hours", "procedure": "The cytotoxicity of the G2 Janus-type dendritic polyelectrolyte zwitterions according to the present disclosure (JDPZ, (+M)2(−M)2 conjugate_1) was analyzed using HCT116 cells (human colon cancer cells). Specifically, HCT116 cells were subcultured in DMEM supplemented with 10% FBS (fetal bovine serum), dispensed into each well at 1×10^4 cells/well, and cultured at 37° C. for 24 hours. The cells were treated with the samples (Example 5-1 and Comparative Examples 1-1 to 1-3) at various concentrations (0, 1.25, 2.5, 5, 10 μM), respectively, and incubated at 37° C. for 4 hours. WST-8 solution was added to the cultured cells, and absorbance was measured at 450 nm with a microplate reader (Perkin-Elmer, USA) 4 hours later."}, "HCT116 cells [3]": {"system": "HCT116 cells", "test": "Intracellular delivery efficiency in HCT116 cells by flow cytometry", "assay_type": "cell-based, human", "settings": "summary statement, b342", "procedure": "To confirm the intracellular delivery efficiency, HCT116 cells were subcultured in DMEM supplemented with 10% FBS (fetal bovine serum), dispensed into each well at 1-3×10^4 cells/well, and cultured at 37° C. for 24 hours. The cells were treated with the (+6)2(−6)2 conjugate_FAM prepared in Example 6-2 at a concentration of 10 μM and incubated at 37° C. for 4 hours. Afterwards, the cells were washed with Dulbecco's phosphate-buffered saline (DPBS), trypsinized, resuspended in DPBS supplemented with 10% cell dissociation buffer (GIBCO) and 1% FBS, and then analyzed using a flow cytometer (BD LSR II SORT flow cytometer, BD Bioscience, USA) for analysis of intracellular fluorescence."}, "HeLa cells": {"system": "HeLa cells", "test": "Cytotoxicity, WST-8 assay in HeLa cells", "assay_type": "cell-based", "settings": "0, 2, 4, 8, 16, 32, 64 and 128 μM, 4 hours", "procedure": "Since DPZ contains both polyelectrolytes and zwitterions in a single molecule, it is expected to have non-fouling property and low toxicity, while also having advantageous intracellular delivery efficiency due to its interaction with the cell membrane. Cytotoxicity was analyzed first. HeLa cells were subcultured in DMEM supplemented with 10% FBS (fetal bovine serum), dispensed into each well at 1×10^4 cells/well, and cultured at 37° C. for 24 hours. The cells were treated with the samples (Examples 1-1 to 1-6 or Comparative Examples 3-1 and 3-2) at various concentrations and then cultured at 37° C. for 4 hours. WST-8 solution was added to the cultured cells, and absorbance was measured at 450 nm with a microplate reader (Perkin-Elmer, USA) 4 hours later.\nCytotoxicity was analyzed using HeLa cells. Specifically, HeLa cells were subcultured in DMEM supplemented with 10% FBS (fetal bovine serum), dispensed into each well at 1×10^4 cells/well, and cultured at 37° C. for 24 hours. The cells were treated with the samples (Examples 3-1 to 3-6) at various concentrations and then cultured at 37° C. for 4 hours. WST-8 solution was added to the cultured cells, and absorbance was measured at 450 nm with a microplate reader (Perkin-Elmer, USA) 4 hours later."}, "[4]": {"settings": "1 μg BSA, various peptide/BSA (w/w) ratios, room temperature 1 hour"}}, "note": "Ends that are not written are not given here.", "data": [{"compound": "CC(=O)NCCCCCCCCCCCC(=O)NCCCCC(NC(=O)CCCCCCCCCCCNC(C)=O)C(=O)NCCCCC(NC(=O)C(CCCCNC(=O)CCCCCCCCCCCNC(C)=O)NC(=O)CCCCCCCCCCCNC(C)=O)C(=O)NCCCCC(NC(=O)C(CCCCNC(=O)C(CCCCNC(=O)[C@H](CCC(=O)O)NC(=O)[C@H](CCC(=O)O)NC(=O)[C@H](CCC(=O)O)NC(=O)[C@H](CCC(=O)O)NC(=O)[C@H](CCC(=O)O)NC(=O)[C@H](CCC(=O)O)NC(C)=O)NC(=O)[C@H](CCCCC(=N)N)NC(=O)[C@H](CCCNC(=N)N)NC(=O)[C@H](CCCNC(=N)N)NC(=O)[C@H](CCCNC(=N)N)NC(=O)[C@H](CCCNC(=N)N)NC(=O)[C@H](CCCNC(=N)N)NC(C)=O)NC(=O)C(CCCCNC(=O)[C@H](CCCNC(=N)N)NC(=O)[C@H](CCCNC(=N)N)NC(=O)[C@H](CCCNC(=N)N)NC(=O)[C@H](CCCNC(=N)N)NC(=O)[C@H](CCCNC(=N)N)NC(=O)[C@H](CCCNC(=N)N)NC(C)=O)NC(=O)[C@H](CCC(=O)O)NC(=O)[C@H](CCC(=O)O)NC(=O)[C@H](CCC(=O)O)NC(=O)[C@H](CCC(=O)O)NC(=O)[C@H](CCC(=O)O)NC(=O)[C@H](CCC(=O)O)NC(C)=O)C(N)=O", "note": "(stereo partly drawn) [Example 5-4]", "values": [{"measurement": "binding to BSA (non-fouling property), EMSA", "setting": "BSA; [4]", "value": "hardly binds to BSA"}, {"measurement": "Net charge", "setting": "[1]", "value": 0}, {"measurement": "Zeta potential (mV)", "setting": "[1]", "value": "+35.2 mV"}, {"measurement": "Diameter (nm) in DW", "setting": "[1]", "value": 649.0, "unit": "nm"}, {"measurement": "Diameter (nm) in PBS", "setting": "[1]", "value": 128.9, "unit": "nm"}, {"measurement": "interaction with rRNA (non-fouling property), EMSA", "setting": "yeast rRNA", "value": "forms interaction only under high-concentration conditions in which rRNA is present in an amount exceeding 10 times"}]}, {"compound": "CC(=O)NCCCCCCCCCCCC(=O)NCCCCC(NC(=O)CCCCCCCCCCCNC(C)=O)C(=O)NCCCCC(NC(=O)C(CCCCNC(=O)CCCCCCCCCCCNC(C)=O)NC(=O)CCCCCCCCCCCNC(C)=O)C(=O)NCCCCC(NC(=O)C(CCCCNC(=O)C(CCCCNC(=O)[C@H](CCC(=O)O)NC(=O)[C@H](CCC(=O)O)NC(=O)C(CCC(=O)O)NC(C)=O)NC(=O)[C@H](CCCCC(=N)N)NC(=O)[C@H](CCCNC(=N)N)NC(=O)[C@H](CCCNC(=N)N)NC(C)=O)NC(=O)C(CCCCNC(=O)[C@H](CCCNC(=N)N)NC(=O)[C@H](CCCNC(=N)N)NC(=O)[C@H](CCCNC(=N)N)NC(C)=O)NC(=O)[C@H](CCC(=O)O)NC(=O)[C@H](CCC(=O)O)NC(=O)[C@H](CCC(=O)O)NC(C)=O)C(N)=O", "note": "(stereo partly drawn) [Example 5-1]", "values": [{"measurement": "cytotoxicity", "setting": "HCT116 cells [2]", "value": "does not exhibit cytotoxicity"}, {"measurement": "Net charge", "setting": "[1]", "value": 0}, {"measurement": "Zeta potential (mV)", "setting": "[1]", "value": "+42.3 mV"}, {"measurement": "Diameter (nm) in DW", "setting": "[1]", "value": 109.8, "unit": "nm"}, {"measurement": "Diameter (nm) in PBS", "setting": "[1]", "value": 75.4, "unit": "nm"}]}, {"compound": "CC(=O)NCCCCCCCCCCCC(=O)NCCCCC(NC(=O)CCCCCCCCCCCNC(C)=O)C(=O)NCCCCC(NC(=O)C(CCCCNC(=O)CCCCCCCCCCCNC(C)=O)NC(=O)CCCCCCCCCCCNC(C)=O)C(=O)NCCCCC(NC(=O)C(CCCCNC(=O)C(CCCCNC(=O)C(CCCNC(=N)N)NC(=O)C(CCCNC(=N)N)NC(=O)C(CCCNC(=N)N)NC(C)=O)NC(=O)C(CCCNC(=N)N)NC(=O)C(CCCNC(=N)N)NC(=O)C(CCCNC(=N)N)NC(C)=O)NC(=O)C(CCCCNC(=O)C(CCCNC(=N)N)NC(=O)C(CCCNC(=N)N)NC(=O)C(CCCNC(=N)N)NC(C)=O)CC(=O)C(CCCNC(=N)N)NC(=O)C(CCCNC(=N)N)NC(=O)C(CCCNC(=N)N)NC(C)=O)C(N)=O", "note": "(stereo not drawn) [Comparative Example 1-1]", "values": [{"measurement": "cytotoxicity", "setting": "HCT116 cells [2]", "value": "very high toxicity"}, {"measurement": "cellular delivery efficiency", "setting": "HCT116 cells [3]", "value": "high cellular delivery efficiency"}]}, {"compound": "Comparative Example 3-1: peptide in which cationic and anionic amino acids are linked alternately (Ac-ERERERERERERERERERERERERERER)", "values": [{"measurement": "cytotoxicity", "setting": "HeLa cells", "value": "do not cause toxicity in the cells"}]}, {"compound": "Ac-EEEEEEEEEEEERRRRRRRRRRRR-NH2 [Comparative Example 3-2]", "values": [{"measurement": "cytotoxicity", "setting": "HeLa cells", "value": "do not cause toxicity in the cells"}]}, {"compound": "CC(=O)NCCCCCCCCCCCC(=O)NCCCCC(NC(=O)CCCCCCCCCCCNC(C)=O)C(=O)NCCCCC(NC(=O)C(CCCCNC(=O)CCCCCCCCCCCNC(C)=O)NC(=O)CCCCCCCCCCCNC(C)=O)C(=O)NCCCCC(NC(=O)C(CCCCNC(=O)C(CCCCNC(=O)C(CO)NC(=O)C(CO)NC(=O)C(CO)NC(C)=O)NC(=O)C(CCCNC(=N)N)NC(=O)C(CCCNC(=N)N)NC(=O)C(CCCNC(=N)N)NC(C)=O)NC(=O)C(CCCCNC(=O)C(CO)NC(=O)C(CO)NC(=O)C(CO)NC(C)=O)NC(=O)C(CCCNC(=N)N)NC(=O)C(NCCNC(=N)N)NC(=O)C(CCCNC(=N)N)NC(C)=O)C(N)=O", "note": "(stereo not drawn) [Comparative Example 1-2, reference compound]", "values": [{"measurement": "binding to BSA (non-fouling property), EMSA", "setting": "BSA; [4]", "value": "binds easily to BSA"}, {"measurement": "cytotoxicity", "setting": "HCT116 cells [2]", "value": "very high toxicity"}, {"measurement": "Net charge", "setting": "[1]", "value": "+6"}, {"measurement": "Zeta potential (mV)", "setting": "[1]", "value": "+52.8 mV"}, {"measurement": "Diameter (nm) in DW", "setting": "[1]", "value": 742.3, "unit": "nm"}, {"measurement": "Diameter (nm) in PBS", "setting": "[1]", "value": "5,688.2 nm"}, {"measurement": "interaction with rRNA (non-fouling property), EMSA", "setting": "yeast rRNA", "value": "forms a non-specific interaction with rRNA even under the low-concentration rRNA condition"}, {"measurement": "cellular delivery efficiency", "setting": "HCT116 cells [3]", "value": "high cellular delivery efficiency"}]}, {"compound": "linear peptide R12: linear peptide with 12 arginines, same number of cationic residues as Example 1-6 (RRRRRRRRRRRR; not fully specified (some residues))", "values": [{"measurement": "binding to BSA (non-fouling property), EMSA", "setting": "BSA; 0.5 μg BSA, various R/B (arginine/BSA) ratios, room temperature 12 hours", "value": "interacts with BSA and induces EMS"}]}]}
